Results published in the supplement of paper PMC10126150.
± gives the standard deviation of the averaged measurements.

The sequences below were run on ATP (assay: switch fluorescence ratio, 500 uM ATP over buffer (Cy3 cluster intensity, sum of 5 cycles each) (fold (ratio)); higher = stronger signal-on switching upon ATP binding; sequences stand for … in TCGTCGGCAGCGTCAGATGTGTATAAGAGACAGTTTTTTTTTTTTTTTTTTTTTTTTT…TC). Details: aptamer strand: ATP DNA aptamer (quencher-CACCTGGGGGAGTATTGCGGAGGAAGG + anchor), 100 nM annealed; ATP concentration: 500 uM.
Summary of the method: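 Clusters with intensities outside 100-1000 RFU were excluded. The remaining Cy3-labelled switching-strand clusters on a modified Illumina MiSeq flow-cell had been annealed to 100 nM quencher-labelled ATP aptamer and imaged in selection buffer, then after 15 min with 500 uM ATP at 22 °C, for five cycles separated by NaOH stripping and re-annealing. The fluorescence ratio, averaged per switch-domain sequence, is each cluster's summed target-cycle Cy3 intensity over its summed buffer-cycle Cy3 intensity.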
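Note: ATP exposure 15 min at 22 °C before imaging.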

In order of rising switch fluorescence ratio:
1. GCGGTGGACG  0.947 ± 0.077
2. GCGGTTAAGG  0.9577 ± 0.006
3. GCGTTGTTTG  0.958 ± 0.042
4. GCGGGGGCAT  0.964 ± 0.012
5. GCGGGAGTTT  0.9667 ± 0.0015
6. GCTATTGTTC  0.967 ± 0.039
7. GCGTTTCGGG  0.968 ± 0.018
8. GCGGGTCGGG  0.969 ± 0.054
9. GCGGTTGCGT  0.971 ± 0.057
10. GCTATCATGG  0.9727 ± 0.0076
11. GCGGTACAGC  0.9782 ± 0.0069
12. GCTAAAGTCG  0.9814 ± 0.005
13. GCTAGCAATG  0.982 ± 0.037
14. GCTAGGAAGT  0.983 ± 0.022
15. GCGGGGGCGC  0.985 ± 0.016
16. GCGTCCCGTG  0.985 ± 0.11
17. GCGTAAGTG  0.986 ± 0.041
18. GCGTTTAGAA  0.987 ± 0.036
19. GCGTAGAGCG  0.9878 ± 0.0012
20. GCGGTGAGAT  0.989 ± 0.012
21. GCTAGCTGGT  0.989 ± 0.021
22. GCGGGCAAGT  0.9903 ± 0.00062
23. GCGTGTCTAT  0.991 ± 0.019
24. GCGTTTTTTG  0.9912 ± 0.0054
25. GCGGGAACGG  0.992 ± 0.017
26. GCGTAAATTG  0.9923 ± 0.0053
27. GCGGGGCCTG  0.993 ± 0.051
28. GCGGGGGCAG  0.993 ± 0.013
29. GCGTACTGTG  0.994 ± 0.022
30. GCTAACGGCA  0.994 ± 0.03
31. GCGGATGAGC  0.995 ± 0.013
32. GCGGGAAGGG  0.995 ± 0.033
33. GCGGGCACCA  0.995 ± 0.024
34. GCGTGACCGC  0.995 ± 0.04
35. GCGTTGGAGC  0.9949 ± 0.0072
36. GCTAGTGCTA  0.996 ± 0.04
37. GCGGTAGTTT  0.9974 ± 0.0066
38. GCTAGGACGT  0.997 ± 0.03
39. GCGGTGACCG  0.9978 ± 0.0046
40. GCTACTTTTG  0.998 ± 0.027
41. GCGGAGGGGG  1 ± 0.035
42. GCGGATGGCA  1 ± 0.038
43. GCGGGATTGG  1.001 ± 0.0077
44. GCGGGGAGCG  1.001 ± 0.0031
45. GCGTATTCTA  1 ± 0.033
46. GCGTGACGTA  1 ± 0.088
47. GCTATTTAGG  1 ± 0.024
48. GCGGATAAGC  1.01 ± 0.039
49. GCGGGCGCCC  1.011 ± 0.006
50. GCGGGGCCCA  1.01 ± 0.013
51. GCGGGGGACC  1.011 ± 0.0051
52. GCGGGGGATG  1.01 ± 0.034
53. GCGGGGGGAC  1.01 ± 0.015
54. GCGGGGTTTT  1.01 ± 0.029
55. GCGGTAGACG  1.01 ± 0.021
56. GCGTCGGGGG  1.01 ± 0.028
57. GCGTGTCCGT  1.01 ± 0.025
58. GCGTTCAGGT  1.01 ± 0.02
59. GCGTTGGCCA  1.01 ± 0.016
60. GCTATCTCTT  1.01 ± 0.012
61. GCTCAAAGCT  1.01 ± 0.043
62. GCTCATTATT  1.014 ± 0.0015
63. GCGGAGGGGT  1.02 ± 0.049
64. GCGGCACGGG  1.02 ± 0.054
65. GCGGCGGAAG  1.025 ± 0.0042
66. GCGGGCGTTC  1.0164 ± 0.0005
67. GCGGGGCCAT  1.02 ± 0.028
68. GCGGGGGAAC  1.018 ± 0.0055
69. GCGGGGGGGG  1.02 ± 0.041
70. GCGTCCACGG  1.017 ± 0.01
71. GCGTTGTGTG  1.02 ± 0.027
72. GCTACACGGC  1.02 ± 0.033
73. GCTAGAAGTA  1.02 ± 0.049
74. GCTAGAGGGT  1.02 ± 0.027
75. GCTATAGTCG  1.022 ± 0.0027
76. GCGGTGGGGA  1.03 ± 0.027
77. GCGGTTCTC  1.03 ± 0.029
78. GCGTCCACCA  1.03 ± 0.067
79. GCGTGCAGGA  1.027 ± 0.01
80. GCGTGCGTGT  1.03 ± 0.032
81. GCTAATATTA  1.03 ± 0.021
82. GCTAGGGTAG  1.03 ± 0.058
83. GCGTTGAGGA  1.04 ± 0.08
84. GCTACACTGA  1.04 ± 0.023
85. GCGTCACGTC  1.05 ± 0.054
86. GCGTGCATTC  1.05 ± 0.017
87. GCTAATAAAT  1.046 ± 0.0035
88. GCGTTAATAA  1.06 ± 0.038
89. GCGTTTGCCC  1.06 ± 0.072
90. GCTACAGCAT  1.06 ± 0.031
91. GCTATTGGTG  1.06 ± 0.019
92. GCGTTCCTTG  1.071 ± 0.0017
93. GCTACCACTC  1.089 ± 0.01
94. GCGTCAACTC  1.1 ± 0.016
95. GCTACCCATC  1.1 ± 0.05
96. GCGGGGGTAC  1.11 ± 0.077
97. GCGGGGCTCA  1.12 ± 0.11
98. GCTCCAATCG  1.13 ± 0.049
99. GCGGGCTAAC  1.17 ± 0.24
100. GCGTCCGCTG  1.22 ± 0.039
